Experimental data as given in the supplement of paper PMC9112550, “Optimization of the antimicrobial peptide Bac7 by deep mutational scanning” (BMC Biology, 2022).

System: Escherichia coli TOP10
Test: shrunken log2 fold change of peptide-encoding DNA abundance (4.5 h post-induction vs induction); higher = less antimicrobial activity (less host growth inhibition)
Details: time post-induction: 4.5 h; library: site-saturation at positions 5, 18, 19, 20
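Further: peptides expressed intracellularly from a pBAD plasmid library in pooled LB shake-flask culture, induced with 0.3% L-arabinose, DNA abundance read by NGS, three biological replicates, DESeq2 with apeglm shrinkage.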

| Sequence | shrunken log2 fold change |
| --- | --- |
| RRIRPRPPRLPRPRPRPFELPRP | -0.284 |
| RRIRPRPPRLPRPRPRPWNSPRP | -0.163 |
| RRIRIRPPRLPRPRPRPWCCPRP | -0.481 |
| RRIRRRPPRLPRPRPRPTREPRP | 0.892 |
| RRIRSRPPRLPRPRPRPPCKPRP | -0.163 |
| RRIRTRPPRLPRPRPRPWGFPRP | 0.0102 |
| RRIRFRPPRLPRPRPRPFAKPRP | -0.026 |
| RRIRSRPPRLPRPRPRPHEGPRP | 0.0242 |
| RRIRERPPRLPRPRPRPGPDPRP | -0.118 |
| RRIRPRPPRLPRPRPRPPACPRP | 0.207 |
| RRIRNRPPRLPRPRPRPMGTPRP | -0.0967 |
| RRIRDRPPRLPRPRPRPCFGPRP | -0.112 |
| RRIRKRPPRLPRPRPRPVDKPRP | 0.0581 |
| RRIRHRPPRLPRPRPRPIFCPRP | -0.184 |
| RRIRRRPPRLPRPRPRPMDMPRP | 0.0833 |
| RRIRRRPPRLPRPRPRPPIRPRP | 2.1 |
| RRIRYRPPRLPRPRPRPQDKPRP | -0.341 |
| RRIRYRPPRLPRPRPRPWDGPRP | -0.196 |
| RRIRYRPPRLPRPRPRPTEYPRP | -0.204 |
| RRIRRRPPRLPRPRPRPYSPPRP | 0.00204 |
| RRIRHRPPRLPRPRPRPLLVPRP | -0.167 |
| RRIRLRPPRLPRPRPRPTFYPRP | -0.273 |
| RRIRHRPPRLPRPRPRPKKHPRP | -0.324 |
| RRIRTRPPRLPRPRPRPMYLPRP | -0.518 |
| RRIRGRPPRLPRPRPRPNFMPRP | 0.0686 |

| Sequence | shrunken log2 fold change |
| --- | --- |
| RRIRGRPPRLPRPRPRPLMEPRP | 0.6 |
| RRIRHRPPRLPRPRPRPFYHPRP | -0.126 |
| RRIRIRPPRLPRPRPRPPKVPRP | -0.0254 |
| RRIRTRPPRLPRPRPRPQFHPRP | -0.541 |
| RRIRQRPPRLPRPRPRPYYRPRP | -0.124 |
| RRIRTRPPRLPRPRPRPYKFPRP | 0.00477 |
| RRIRQRPPRLPRPRPRPKNIPRP | -0.652 |
| RRIRDRPPRLPRPRPRPGINPRP | 0.0194 |
| RRIRLRPPRLPRPRPRPGWPPRP | 0.406 |
| RRIRMRPPRLPRPRPRPMISPRP | -0.0256 |
| RRIRYRPPRLPRPRPRPQGKPRP | -0.00664 |
| RRIRSRPPRLPRPRPRPCWPPRP | 0.42 |
| RRIRNRPPRLPRPRPRPVCFPRP | -0.162 |
| RRIRSRPPRLPRPRPRPVKPPRP | 0.132 |
| RRIRPRPPRLPRPRPRPPSTPRP | 0.123 |
| RRIRCRPPRLPRPRPRPHVYPRP | -0.899 |
| RRIRSRPPRLPRPRPRPDGMPRP | -0.113 |
| RRIRPRPPRLPRPRPRPIFGPRP | 0.0562 |
| RRIRRRPPRLPRPRPRPDHDPRP | 0.335 |
| RRIRLRPPRLPRPRPRPIMCPRP | 0.02 |
| RRIRIRPPRLPRPRPRPVVCPRP | -0.000979 |
| RRIRSRPPRLPRPRPRPPRFPRP | 0.378 |
| RRIRWRPPRLPRPRPRPKGKPRP | -0.00191 |
| RRIRYRPPRLPRPRPRPKHHPRP | -0.986 |
| RRIRWRPPRLPRPRPRPYFHPRP | -0.625 |

| Sequence | shrunken log2 fold change |
| --- | --- |
| RRIRVRPPRLPRPRPRPENAPRP | 0.173 |
| RRIRYRPPRLPRPRPRPWMWPRP | 0.0261 |
| RRIRIRPPRLPRPRPRPGWKPRP | -0.0134 |
| RRIRCRPPRLPRPRPRPICCPRP | -0.166 |
| RRIRGRPPRLPRPRPRPCEQPRP | 0.48 |
| RRIRPRPPRLPRPRPRPNWNPRP | -0.184 |
| RRIRYRPPRLPRPRPRPWHRPRP | -0.172 |
| RRIRDRPPRLPRPRPRPGRIPRP | -0.136 |
| RRIRERPPRLPRPRPRPTDWPRP | -0.145 |
| RRIRARPPRLPRPRPRPATRPRP | 0.487 |
| RRIRHRPPRLPRPRPRPAISPRP | -0.121 |
| RRIRIRPPRLPRPRPRPVNLPRP | -0.116 |
| RRIRQRPPRLPRPRPRPNTSPRP | -0.292 |
| RRIRVRPPRLPRPRPRPDARPRP | 0.262 |
| RRIRIRPPRLPRPRPRPTMCPRP | -0.386 |
| RRIRHRPPRLPRPRPRPYEDPRP | -0.336 |
| RRIRGRPPRLPRPRPRPHGLPRP | 0.211 |
| RRIRERPPRLPRPRPRPQKQPRP | -0.0621 |
| RRIRVRPPRLPRPRPRPMIFPRP | -0.213 |
| RRIRWRPPRLPRPRPRPEDCPRP | -0.00079 |
| RRIRLRPPRLPRPRPRPVTGPRP | -0.121 |
| RRIRLRPPRLPRPRPRPHQRPRP | -0.259 |
| RRIRGRPPRLPRPRPRPAFCPRP | 0.731 |
| RRIRIRPPRLPRPRPRPNCAPRP | -0.187 |
| RRIRERPPRLPRPRPRPMMQPRP | -0.0983 |

| Sequence | shrunken log2 fold change |
| --- | --- |
| RRIRIRPPRLPRPRPRPRSMPRP | -0.695 |
| RRIRLRPPRLPRPRPRPHAFPRP | -0.208 |
| RRIRVRPPRLPRPRPRPRDCPRP | 2.64 |
| RRIRVRPPRLPRPRPRPNLAPRP | 0.0958 |
| RRIRERPPRLPRPRPRPIRNPRP | -0.343 |
| RRIRGRPPRLPRPRPRPMGPPRP | 0.846 |
| RRIRSRPPRLPRPRPRPFWEPRP | 0.0122 |
| RRIRSRPPRLPRPRPRPVINPRP | -0.106 |
| RRIRTRPPRLPRPRPRPWEMPRP | -0.0783 |
| RRIRWRPPRLPRPRPRPGQFPRP | 0.061 |
| RRIRKRPPRLPRPRPRPEDNPRP | 0.749 |
| RRIRSRPPRLPRPRPRPEAMPRP | 1.09 |
| RRIRERPPRLPRPRPRPTIAPRP | -0.25 |
| RRIRRRPPRLPRPRPRPDHQPRP | -0.18 |
| RRIRQRPPRLPRPRPRPFCYPRP | -0.264 |
| RRIRFRPPRLPRPRPRPFLQPRP | -0.408 |
| RRIRERPPRLPRPRPRPWCNPRP | -0.112 |
| RRIRFRPPRLPRPRPRPGNGPRP | 0.228 |
| RRIRIRPPRLPRPRPRPCKFPRP | -0.549 |
| RRIRMRPPRLPRPRPRPWIWPRP | 0.106 |
| RRIRMRPPRLPRPRPRPVICPRP | 0.00711 |
| RRIRHRPPRLPRPRPRPRDRPRP | 0.0898 |
| RRIRPRPPRLPRPRPRPVTCPRP | -0.237 |
| RRIRRRPPRLPRPRPRPPHSPRP | 0.916 |
| RRIRMRPPRLPRPRPRPWWNPRP | 0.045 |

| Sequence | shrunken log2 fold change |
| --- | --- |
| RRIRTRPPRLPRPRPRPIPHPRP | -0.307 |
| RRIRQRPPRLPRPRPRPGYLPRP | 0.0613 |
| RRIRMRPPRLPRPRPRPIWQPRP | -0.224 |
| RRIRGRPPRLPRPRPRPDYHPRP | -0.139 |
| RRIRCRPPRLPRPRPRPEIRPRP | -0.123 |
| RRIRSRPPRLPRPRPRPQTPPRP | 0.6 |
| RRIRPRPPRLPRPRPRPPVNPRP | 0.15 |
| RRIRFRPPRLPRPRPRPHPPPRP | 1.27 |
| RRIRSRPPRLPRPRPRPTSPPRP | 0.742 |
| RRIRQRPPRLPRPRPRPCELPRP | 0.0039 |
| RRIRQRPPRLPRPRPRPDDVPRP | 0.064 |
| RRIRQRPPRLPRPRPRPVCTPRP | 0.0864 |
| RRIRYRPPRLPRPRPRPIALPRP | -0.0389 |
| RRIRFRPPRLPRPRPRPSMGPRP | -0.648 |
| RRIRIRPPRLPRPRPRPVRFPRP | -0.16 |
| RRIRVRPPRLPRPRPRPTGPPRP | 0.164 |
| RRIRHRPPRLPRPRPRPVTPPRP | -0.00938 |
| RRIRLRPPRLPRPRPRPPYTPRP | -0.674 |
| RRIRKRPPRLPRPRPRPQRPPRP | 0.518 |
| RRIRTRPPRLPRPRPRPDPHPRP | -0.00783 |
| RRIRERPPRLPRPRPRPSDGPRP | -0.166 |
| RRIRCRPPRLPRPRPRPHLHPRP | -0.626 |
| RRIRKRPPRLPRPRPRPGRIPRP | -0.0354 |
| RRIRYRPPRLPRPRPRPCLWPRP | -0.481 |
| RRIRIRPPRLPRPRPRPPHKPRP | -0.0846 |

| Sequence | shrunken log2 fold change |
| --- | --- |
| RRIRQRPPRLPRPRPRPPYRPRP | 0.158 |
| RRIRSRPPRLPRPRPRPNLWPRP | -0.075 |
| RRIRARPPRLPRPRPRPSTAPRP | 0.482 |
| RRIRARPPRLPRPRPRPECDPRP | 1.12 |
| RRIRFRPPRLPRPRPRPGEGPRP | 0.375 |
| RRIRMRPPRLPRPRPRPTCSPRP | 0.134 |
| RRIRARPPRLPRPRPRPPVAPRP | 0.77 |
| RRIRRRPPRLPRPRPRPPSHPRP | 0.586 |
| RRIRIRPPRLPRPRPRPLNCPRP | -0.0654 |
| RRIRFRPPRLPRPRPRPYHIPRP | -0.081 |
| RRIRVRPPRLPRPRPRPNQTPRP | -0.0286 |
| RRIRVRPPRLPRPRPRPERQPRP | 0.514 |
| RRIRLRPPRLPRPRPRPKPRPRP | 0.729 |
| RRIRWRPPRLPRPRPRPWSDPRP | -0.289 |
| RRIRHRPPRLPRPRPRPYLVPRP | -0.162 |
| RRIRFRPPRLPRPRPRPSDGPRP | -0.391 |
| RRIRRRPPRLPRPRPRPDIQPRP | 0.0298 |
| RRIRRRPPRLPRPRPRPHLHPRP | 0.216 |
| RRIRNRPPRLPRPRPRPNLDPRP | -0.136 |
| RRIRQRPPRLPRPRPRPTIAPRP | 0.0737 |
| RRIRHRPPRLPRPRPRPYPHPRP | -0.495 |
| RRIRFRPPRLPRPRPRPQKSPRP | -0.285 |
| RRIRPRPPRLPRPRPRPLTTPRP | 0.135 |
| RRIRARPPRLPRPRPRPKQEPRP | 0.254 |
| RRIRPRPPRLPRPRPRPAHTPRP | -0.0311 |
